# Measurements published in the DeepSol protein solubility set.
# Assay: soluble on expression in E. coli; label from the status in PepcDB or PDB records
row,Sequence,soluble on expression in E. coli
1,MSGQKCSAYTDTMGTCTICSIFAPHSQLFICRHEGCKYALKQSSSIMTPAMFYRKEKVICGKCAFVGPHKMHKDFVSKAQKLAFKIASQEIGVRLQMEFDVLSELHEDNPVDYAIILSGHEKLEKIDVIKYLSQSKTIVEWNLRQRQLNEAIQFIKFNRIEGYHRVKELANKMLDAFYDANATIERDSENGSPQSDDDHLSDVSHECQGSSRSSISSKKSSIHSTSTTGTVILNQNPDNALSCSEVSGGDELKNKSSTNEGYTESMTETVITISRRFEMCIRRESPEDAVSRIADYLDDRIESNDQKKAIAEYMERNYSIKWPRQFQ,not soluble
2,MSQGLPLREDVPVSETWDLVDLFKDDQQYYESIDALVQQANQFHHTYATTLNSIEQINTALAELENILIALDRLSNYAELRLSVDTSNIEAQVLSAKLSTTYGKIVSQLSFVESEILELPEEILQQLEESCPYQHYIKQLIKQKPFQLSASVEQVLATLSPTLNSPYDLYGTTKMLDITFDSFEHDGTTYPVDYATFENDYEDNKDPEFRRKSFKSFSDGIRKYQHTTAATYNMQVQQEKIEADLRGFESVIDYLLHSQEVTRDMFDRQIDMIMRDLAPVMQKYAKLLQRIHGLDNMRFEDLKISVDPDYEPEISIEDSKNYIFGALSVLGDDYTNMLREAYDQRWIDFAQNKGKDTGAFCASPYFTHSYVFISWTGKMAEAFVLAHELGHAGHFTLAQKHQPYLESEASMYFVEAPSTMNEMLMANYLFNTSDNPRFKRWIIGSILSRTYYHNMVTHLLEAAYQREVYHKVDQGESLNAPTLNEIMLNVYKQFFGDAVDMTEGAELTWMRQPHYYMGLYSYTYSAGLTIGTVVSQKIKNEGQPAVDAWLETLKKGGSVSPVELANIAGVDITTEQPLKSTIQYISDLVDEVEKLTDEIEQANN,soluble
3,MSKRILFIVGSFSEGSFNRQLAKKAETIIGDRAQVSYLSYDRVPFFNQDLETSVHPEVAHAREEVQEADAIWIFSPVYNYAIPGPVKNLLDWLSRSLDLSDPTGPSVLQDKIVTVSSVANGASPEEVFEDYRSLLPFIRMHLVDQLTGVPINSEAWSTGILKVSAEKLAELSAQADALLSAIENLEHHHHHH,soluble
4,MSLRATWGDVRQGLWMSLTRAGLLHLNADPDPKNWRPHILVLSGAPRRRWPVIELASALTHNQALMTVGTVLRPSEASDFEAQREAEATLREYLGSRGVQSLVRTTTAEDPFAGGERLIEDYGLGVLKPNTIMLGHTEDPTHHEQFCTLIKHLYAARRNVAVLRGGNQGFGNRERIDVWWSGLKGNGGLMKILAYLLQTNLEWQNAQVRVNVVADDDEEAEEQRQTVGPILDQLRTGAALNVIEADGRIFDEIVHDASADADIVFLGMATPDEEGDYVTYYTRLHERTAGLPPTVFVLAAEEISFRDVLALEHHHHHH,not soluble
5,MYKIVSDSACDLSKEYLEKHDVTIVPLSVSFDGETYYRDGVDITRDECYQRMVDDPKLFPKTSLPSVESYADVFRSFVEQGFPVVCFTITTLFSGSYNSAINAKSLVLEDYPDANICVIDSKQNTVTQALLIDQFVRMLEDGLSFEQAMSKLDALMASARIFFTVGSLDYLKMGGRIGKVATAATGKLGVKPVIIMKDGDIGLGGIGRNRNKLKNSVLQVAKKYLDENNKDNFIVSVGYGYDKEEGFEFMKEVESTLDVKLDSETNVAIGIVSAVHTGPYPIGLGVIRKYETL,soluble
6,MSLEIRRADKDDLDDFVRVYVESYRGLEDYAYTRKRDVKNYFKWLLSRDKDGVMVAEIDGEAVGFVACDTNWFSIFERKKVGEIHELFVLPEFRGEGIGAKLMEKALEYALERNRKVAELWVGRTNYRARRFYASQDLRRPESGGSGSEEGHHHHHH,not soluble
7,MGSDKIHHHHHHMERFFIVGCGDIGKKVARIALADGAGVAALIRSPEKAESLREMGVTALEANLDERDSLAGMPTRGAVVFYFAPPPGGGVTDPRVRAFCDAIAPGEEPRKIVYLSTSGVYGDCGGDVVTEETPPNPQTSRARRRYDAETVFRQWGAERGVPVVILRVTGIYGPGRLPLQQLTSGQPVLEESLAPFTNRIHSEDLARICLAAAEHGEDGDIFNVSDGHPTTMTAYFDACADALGLPRPRRVTLEEARRVMTPLMFSYVTESRKMDNRLMREKLHVTLLYPTMQEGVRSSVA,not soluble
8,MKKWLLAAGLGLALATSAQAADKIAIVNMGSLFQQVAQKTGVSNTLENEFKGRASELQRMETDLQAKMKKLQSMKAGSDRTKLEKDVMAQRQTFAQKAQAFEQDRARRSNEERGKLVTRIQTAVKSVANSQDIDLVVDANAVAYNSSDVKDITADVLKQVK,soluble
9,MAHHHHHHMNEAAPFCVAPQTWQGGLARYPVSQSHVWNNNIILQPEDIDVEVFNAMSQVESQYNKNEISVEDFEMLQLTFCLFTVNQSCYDLIPNGREIRVTQANAFEFFQRVHAAYDNMKQRPALNQPTQSNHRPRLRTSGTRLRLTGQDTDSLEWIRWTAQNNPAALAFHPDEPLRWAVVPRSRDFMIRVQPEGENTFVDPDHLTLFLDMLAVLLTEIERAISVFGYYPPNCVSAAPVECADEYSIYTSHTTRATRLPFPSQRVNSRGFSALHKFPMPVTAAAAAAAAAATEQNRRTVRRASSADLENQRALCSPTHDTGGLLAPFQEWNV,not soluble
10,MTAAPYNYSYIFKYIIIGDMGVGKSCLLHQFTEKKFMADCPHTIGVEFGTRIIEVSGQKIKLQIWDTAGQERFRAVTRSYYRGAAGALMVYDITRRSTYNHLSSWLADAKSLTNPNTAIFLIGNKADLEDQRDVPYEEAKAFAEENGLTFLECSAKTGSNVEDAFLETAKQIYQNIQDGSLDLNAADTGVQPKQNLPRAAENNGKKDCNC,not soluble
11,MGSDKIHHHHHHMMKIYKKNIDHYIMLSFEINEMNIPFTGQIVVKEDDEVTREVILGRAKKIHEWLVLVDHIFSPFRTNSELTLYNHRKIEMTGTNLLFQEVFALSIWAKEMTQGLFSANFVGKYNPTGAVKGWAIEKAERIQLEPLLSDPNFVAVNLNGGGDMQFSSSDKHNWQWEIGIVNPFDNKKVISCFRMKNGAIATSGTSQRGEHLFNSSTGRAIPEKNFNVISSSVIGSELTYSDIWATAIATTTINDHSWLKRLSGSGLRISYNKKSERWLNHEIIDQKELIYA,not soluble
12,MGSDKIHHHHHHMSIICLALAGCAVEKTEVRTPTFDEQLRPAPPSYANGSIWQASTTGLAVDHKARSRGDIITVLIVEQASASKEATTDTERKAEVSASVPYLMGLEKSSTLFSKLTNANPNNLLGASTNSKYEGSGATTRKENLLATMTAKITDVLPNGNFLIEGRRNVKVNNEDQILVLQGTIRPRDVSPDNTISSTMIADARISYTGNGVISDRQRPGWLMNILDYIWPF,not soluble
13,MGSDKIHHHHHHMARLGVDFGTSNTAAGLVQAGHPRVLPLEPGAQTLPTAVFIDFAARRYVYGTDAARAMMDGQEGRFLRGLKSILGTPLAREPRMFLNERLTLIEVIARFLAEIRTRAERLSGERFDRALSGRPVHFHSASAERDAQACTDLHDAYLMAGFSEVCFLPEPEAAALAVAGQGRMLIVDIGGGTSDFTLCDRRGTTTRMLASRGLRIGGTDFDRVLSLDHAMPLLGYEAQIGAELGEASHSAPRALFHDLASWEKIAFVYDPATLREVRRWVRLAEQPRLFERLAEVLESHLGHDVAYAVEAGKIAANGAAAGRIALDIVERGLGADLGNAAMQAALAGFADEIATCAMQTVRDAGVGPDSVDQVVFVGGSSLMGVIRAALARVLPGAEQQDSEVFTAVVHGLALASEDQ,not soluble
14,MGSDKIHHHHHHMSTPCILCVAITGSLPTKDNNPAVPITISEQIESTHEAFEAGATICHAHVRNDDQTPSSDPEKFERLKEGLEKHCPGMIIQFSTGGRSGAGKARGGMLPLAPDMASLSVGSNNFPTRVYENPPDLVDWLAGEMRTHQVTPEVEAFDLSHILNAIALHKSGALYGKLYVQFVMGVKNAMPADKEVFDFYVDLVKRRAPDANWCAAGIGANQLVVNEWAIAAGGHTRAGLEDNVRLDRNTLAPSNAALIRRAAELCEKYERPVATWQQAREILDVPLRA,not soluble
15,MACCYNSPRRLEKSFVLDGVAVSTMAQAYSIMRPKLWSAIPPYNPQLDHHSRRYFRSRVVPPILRKTDQDHGGTGRDGWIVDYFHIFGQGQRYLNRRNWAGAGHSLQQVSGHDYYNSNPKAITTGLNGRFGYRRNTPALRQHTSVFGEVTPFPISEDIASQGLTCVFKTDV,not soluble
